Measurements from patent US7491523B2, “Voltage-dependent calcium channel beta subunit functional core” (priority 2004, dated 2009).
fluorescein = fluorescein label

Columns and labels:
[1] = test system: β; settings: AID with β; cited from earlier work
[2] = biological target: T1, Cav1.2 (α1C) (Homo sapiens, UniProt Q13936); experiment: Two-electrode voltage clamp of Xenopus oocytes expressing Cav1.2, microinjected with β proteins; assay type: cell-based, Xenopus laevis; settings: for current amplitude increase and change of steady-state activation: Cav1.2 currents, protein injection into oocytes; for Current amplitude, I at 20 mV / Current amplitude, I at 30 mV: Xenopus oocytes, α1.2, mean ± SEM; for Steady-state activation, V1/2 (membrane potential for half-maximal activation) / Steady-state activation, k (slope factor): from I-V curve, mean ± SEM
T1 construct: expressed in transfected cells; host or cells: Xenopus laevis oocytes, mRNA injection
T1 sequence (Q13936 whole entry, species assumed): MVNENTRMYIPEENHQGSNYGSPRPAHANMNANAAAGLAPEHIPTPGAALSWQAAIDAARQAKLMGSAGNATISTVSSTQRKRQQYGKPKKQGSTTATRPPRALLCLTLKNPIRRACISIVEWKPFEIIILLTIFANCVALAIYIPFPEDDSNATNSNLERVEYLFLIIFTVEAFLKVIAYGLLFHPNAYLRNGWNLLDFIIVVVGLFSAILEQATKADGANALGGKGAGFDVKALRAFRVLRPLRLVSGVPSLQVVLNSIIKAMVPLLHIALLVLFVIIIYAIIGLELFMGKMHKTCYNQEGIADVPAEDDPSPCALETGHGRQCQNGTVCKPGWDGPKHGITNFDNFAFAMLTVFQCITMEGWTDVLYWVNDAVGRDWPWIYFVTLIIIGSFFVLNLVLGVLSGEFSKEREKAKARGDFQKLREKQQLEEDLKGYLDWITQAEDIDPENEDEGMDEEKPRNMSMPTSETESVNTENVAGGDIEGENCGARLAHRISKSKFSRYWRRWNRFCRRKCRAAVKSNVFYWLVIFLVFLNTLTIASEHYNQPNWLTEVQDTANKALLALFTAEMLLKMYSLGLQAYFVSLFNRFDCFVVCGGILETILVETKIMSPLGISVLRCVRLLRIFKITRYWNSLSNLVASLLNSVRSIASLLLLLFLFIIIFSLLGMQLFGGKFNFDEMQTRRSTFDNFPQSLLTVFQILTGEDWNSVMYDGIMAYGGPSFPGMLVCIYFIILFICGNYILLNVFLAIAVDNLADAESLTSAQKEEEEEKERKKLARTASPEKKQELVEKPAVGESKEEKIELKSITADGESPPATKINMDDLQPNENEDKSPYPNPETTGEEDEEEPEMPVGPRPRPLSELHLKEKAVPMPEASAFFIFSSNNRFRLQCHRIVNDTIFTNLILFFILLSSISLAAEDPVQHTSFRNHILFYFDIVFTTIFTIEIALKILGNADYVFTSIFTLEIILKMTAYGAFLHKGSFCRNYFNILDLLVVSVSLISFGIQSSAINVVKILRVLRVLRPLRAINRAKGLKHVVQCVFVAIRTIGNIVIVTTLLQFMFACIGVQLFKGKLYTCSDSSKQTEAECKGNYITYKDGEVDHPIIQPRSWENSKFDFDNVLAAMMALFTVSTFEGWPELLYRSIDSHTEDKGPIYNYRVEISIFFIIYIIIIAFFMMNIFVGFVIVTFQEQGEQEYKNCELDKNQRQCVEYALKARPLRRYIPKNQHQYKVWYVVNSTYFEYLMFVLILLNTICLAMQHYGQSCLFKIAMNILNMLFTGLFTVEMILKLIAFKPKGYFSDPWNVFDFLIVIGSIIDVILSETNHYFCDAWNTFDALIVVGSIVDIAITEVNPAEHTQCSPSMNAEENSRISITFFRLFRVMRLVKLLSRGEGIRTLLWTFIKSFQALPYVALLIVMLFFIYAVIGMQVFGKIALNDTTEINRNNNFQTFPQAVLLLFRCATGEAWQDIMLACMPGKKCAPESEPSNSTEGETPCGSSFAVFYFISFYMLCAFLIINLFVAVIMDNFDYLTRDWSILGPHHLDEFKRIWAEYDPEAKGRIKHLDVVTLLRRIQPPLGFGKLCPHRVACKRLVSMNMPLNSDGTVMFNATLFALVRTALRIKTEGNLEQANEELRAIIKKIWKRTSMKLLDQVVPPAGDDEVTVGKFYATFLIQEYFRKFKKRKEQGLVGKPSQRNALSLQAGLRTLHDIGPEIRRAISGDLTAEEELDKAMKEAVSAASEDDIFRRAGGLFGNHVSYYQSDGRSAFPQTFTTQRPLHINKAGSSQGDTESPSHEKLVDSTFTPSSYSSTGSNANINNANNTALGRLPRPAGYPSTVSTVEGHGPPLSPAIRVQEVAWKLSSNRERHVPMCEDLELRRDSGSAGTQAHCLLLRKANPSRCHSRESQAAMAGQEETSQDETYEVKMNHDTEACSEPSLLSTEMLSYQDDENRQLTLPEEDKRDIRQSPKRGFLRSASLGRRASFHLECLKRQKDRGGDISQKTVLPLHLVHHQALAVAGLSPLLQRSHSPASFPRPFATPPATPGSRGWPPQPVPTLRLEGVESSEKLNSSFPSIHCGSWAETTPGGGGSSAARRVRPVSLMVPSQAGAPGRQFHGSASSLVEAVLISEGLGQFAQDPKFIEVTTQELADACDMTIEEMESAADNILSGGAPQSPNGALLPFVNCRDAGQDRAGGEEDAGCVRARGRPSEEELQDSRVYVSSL
Method: Preparation of Xenopus laevis oocytes, injection of mRNA of VDCC subunits, and electrophysiological recording and analysis were performed, as described (Kang, M. G., Chen, C. C., Felix, R., Letts, V. A., Frankel, W. N., Mori, Y., and Campbell, K. P. (2001) J Biol Chem 276, 32917-32924). The negative control group were oocytes expressing CaV1.2 (α1C) subunit only by mRNA injection followed by injection of protein buffer (PB). The positive control group were oocytes expressing α1C and β3 subunits by mRNA injection, followed by injection of protein buffer (PB). The oocytes of experimental groups were injected with α1C mRNA followed by injection of VDCC β proteins, two days after the mRNA injection. Injection of protein ([…] of protein per oocyte) was performed similarly as mRNA injection. Oocytes injected with VDCC β proteins were incubated one more day and the expressed calcium channel currents were recorded using the two-electrode voltage-clamp technique.
In order to determine that the bacterially expressed, recombinant proteins were physiologically active, two-electrode, two-voltage-clamp measurements of Xenopus oocytes expressing α1 and microinjected with our protein samples was performed. […] The current amplitude increase and change of steady-state activation are statistically significant in all experimental groups except a group injected with β2a domain I protein.

[3] = biological target: T2, fluorescein-labeled AID peptide (AID motif of the CaV1.1 I-II linker) (Oryctolagus cuniculus, UniProt P07293, M367N); experiment: AID peptide binding assay (fluorescence polarization): VDCC β constructs titrated against labeled AID peptide; settings: identical protein amounts, after incubation with TEV protease, FIG. 6c
T2 construct: fluorescein label (chemical, on the amino-terminus); made in house; host or cells: synthetic peptide, HPLC-purified
T2 sequence (P07293 with tags, fused parts or gaps M367N): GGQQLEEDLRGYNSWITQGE
Description: Fluorescence polarization was used to determine the equilibrium dissociation constant (KD) for the interaction between a fluorescein-labeled AID peptide, purified and various VDCC β constructs. The synthetic peptide was purified by HPLC reverse chromatography using a C18 column (Vydac) with a shallow acetonitrile gradient 20-80% (both solvents were supplemented with 0.05% trifluoracetic acid). Its sequence is derived from the AID motif of: the CaV1.1 I-II linker and is as follows: fluorescein-[…]-COOH (SEQ ID NO: 14). A mutant peptide, fluorescein-[…]-COOH (SEQ ID NO: 15) was prepared, in addition. […] Polarization measurements were taken with an ISS K2 fluorescence spectrophotometer at excitation and emission wavelengths of 492 and 520 nm, respectively, at 20° C., maintained by a temperature-controlled water bath. […] Binding isotherms for the various samples were measured three independent times. Binding data were analyzed in SigmaPlot (SPSS) by nonlinear regression used to fit a binding function as defined by the following equation: […]
where X is the concentration of free ligand, ΔP is the change in fluorescence polarization of the fluorophore (baseline polarization of the labeled peptide alone was subtracted), Bmax is the maximum change in polarization upon saturation and KD is the concentration of ligand required to reach half maximal binding. […]

[4] = biological target: T3, β2a protein (Oryctolagus cuniculus, UniProt P54288); experiment: AID peptide binding assay (fluorescence polarization): AID peptide variants against β2a; parameters: species or system rabbit; settings: up to 350 nM β2a protein
T3 construct: Equilibrium isotherm titrations were performed with full-length β2a and linkerless core β2a; 8xHis tag followed by a TEV protease site (N, cleaved yes); made in house; host or cells: E. coli BL-21 Tuner with RIL Codon Plus plasmid, modified pET21 vector
T3 sequence (P54288 2-606 isoform P54288-2 P122R): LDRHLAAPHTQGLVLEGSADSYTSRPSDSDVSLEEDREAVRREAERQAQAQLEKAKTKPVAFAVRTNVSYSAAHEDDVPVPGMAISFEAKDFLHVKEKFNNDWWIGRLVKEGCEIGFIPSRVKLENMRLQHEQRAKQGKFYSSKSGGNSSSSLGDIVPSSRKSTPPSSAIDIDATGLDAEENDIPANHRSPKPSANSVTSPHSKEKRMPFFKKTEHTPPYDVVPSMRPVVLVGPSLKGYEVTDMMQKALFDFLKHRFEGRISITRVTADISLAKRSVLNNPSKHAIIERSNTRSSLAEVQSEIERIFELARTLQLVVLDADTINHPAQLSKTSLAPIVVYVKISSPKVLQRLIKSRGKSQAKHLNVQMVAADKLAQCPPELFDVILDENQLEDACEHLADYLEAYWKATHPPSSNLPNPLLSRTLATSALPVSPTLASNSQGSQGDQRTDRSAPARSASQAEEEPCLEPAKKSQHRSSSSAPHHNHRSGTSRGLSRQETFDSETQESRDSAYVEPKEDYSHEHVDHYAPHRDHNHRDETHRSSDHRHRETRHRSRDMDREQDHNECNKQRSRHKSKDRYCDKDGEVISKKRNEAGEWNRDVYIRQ
Description: Fluorescence polarization was used to determine the equilibrium dissociation constant (KD) for the interaction between a fluorescein-labeled AID peptide, purified and various VDCC β constructs. The synthetic peptide was purified by HPLC reverse chromatography using a C18 column (Vydac) with a shallow acetonitrile gradient 20-80% (both solvents were supplemented with 0.05% trifluoracetic acid). Its sequence is derived from the AID motif of: the CaV1.1 I-II linker and is as follows: fluorescein-[…]-COOH (SEQ ID NO: 14). A mutant peptide, fluorescein-[…]-COOH (SEQ ID NO: 15) was prepared, in addition. Increasing concentrations of protein were incubated with 0.5 nM labeled peptide for 10 min in the dark at room temperature. Polarization measurements were taken with an ISS K2 fluorescence spectrophotometer at excitation and emission wavelengths of 492 and 520 nm, respectively, at 20° C., maintained by a temperature-controlled water bath. Polarization measurements were made with integration times on the order of 20 seconds, achieving a standard deviation of 5 percent of signal. Binding isotherms for the various samples were measured three independent times. Binding data were analyzed in SigmaPlot (SPSS) by nonlinear regression used to fit a binding function as defined by the following equation: […]

[5] = biological target: T4, β2a protein (Oryctolagus cuniculus, UniProt P54288, P148R); settings: single amino acid change Y to S; cited from earlier work
T4 construct: Equilibrium isotherm titrations were performed with full-length β2a and linkerless core β2a; 8xHis tag followed by a TEV protease site (N, cleaved yes); made in house; host or cells: E. coli BL-21 Tuner with RIL Codon Plus plasmid, modified pET21 vector
T4 sequence (P54288 2-606 isoform P54288-2 P122R): as above

Row | Substance | koff [1] [s⁻¹] | current amplitude increase and change of steady-state activation [2] | Current amplitude, I at 20 mV [2] | Current amplitude, I at 30 mV [2] [µA] | Steady-state activation, V1/2 (membrane potential for half-maximal activation) [2] [mV] | Steady-state activation, k (slope factor) [2] [mV] | relative binding to labeled AID peptide [3] | binding of AID peptide to β2a [4] | binding capability relative to WT [5]
1 | AID: α1 interaction domain sequence of the α1 I-II linker that binds β | ~0.005 | – | – | – | – | – | – | – | –
2 | Core β2 Pro.: injected recombinant β2a core protein | – | corresponds well to full-length protein activity | −0.87 ± 0.09 A | -0.7 ± 0.07 | 6.84 ± 0.83 | 8.43 ± 0.23 | – | – | –
3 | Core β3 Pro.: β3 core protein | – | – | -0.45 ± 0.04 µA | -0.41 ± 0.03 | 10.65 ± 4.46 | 10.06 ± 1.15 | – | – | –
4 | Full β2 Pro.: injected recombinant full-length β2a protein, later found to contain mutation P122R | – | – | -0.71 ± 0.09 µA | -0.49 ± 0.06 | 3.68 ± 0.33 | 8.48 ± 0.53 | – | – | –
5 | Full β3 Pro.: recombinant full-length rat VDCC β3 subunit protein | – | – | -0.47 ± 0.04 µA | -0.44 ± 0.03 | 10.03 ± 3.36 | 10.56 ± 0.42 | – | – | –
6 | d1 + d2 β2 Pro.: domain I + domain II prepared by proteolysis of full length protein and subsequent purification | – | significant changes in the current amplitude and activation shift | -0.44 ± 0.04 µA | -0.34 ± 0.03 | 3.24 ± 0.93 | 9.49 ± 0.92 | – | – | –
7 | domain II: β2a domain II released from NusA-domain II fusion by incubation with TEV protease | – | – | – | – | – | – | significant binding affinity for the AID | – | –
8 | fluorescein-GGQQLEEDLRGSNSWITQGE-COOH (SEQ ID NO: 15) (fluorescein-GGQQLEEDLRGSNSWITQGE-OH; listed as Oryctolagus cuniculus) [mutant AID peptide, mutant AID peptide with single amino acid change Y to S] | – | – | – | – | – | – | – | No binding | less than five percent binding capability of WT
9 | β2a domain I: recombinant β2a domain I, residues 25 to 146 | – | – | -0.16 ± 0.01 µA | -0.18 ± 0.02 | 24.00 ± 3.01 | 12.18 ± 0.49 | negligible | – | –
